B1: INTS4 (parent)
chain: TIIEPAGESDNPLRFTSGLVVALD

Variants of: B1
Test: protein stability index of a GFP-peptide fusion (GPS, HEK-293T) (PSI 1-6); higher = more stable
Settings: c terminus: a fixed tail appended
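Further: lentivirally expressed fusions sorted by FACS into six bins by GFP to DsRed ratio, PSI derived from sequencing read proportions per bin multiplied by bin number.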

Protein stability index, by site and new letter:
N11: C 2.9, G 2.38, E 3.33, H 2.47, M 2.21, P 2.27, K 2.86, D 3.33, A 3.13, I 2.42, L 2.42, F 1.66
D10: K 2.32, M 2.15, Q 2.49, P 2.83, R 2.23, Y 1.89, A 2.96, F 2.65, I 2.08, V 2, N 3.61, G 2.56, E 2.62, S 2.72, W 2.85, T 2.63, L 1.85, H 2.75, C 2.08
P5: Q 2.49, R 2.51, I 1.5, G 2.78, T 2.77, D 3.36, C 2.56, W 2.53, Y 1.93, E 3.31, F 1.53, H 2.83, V 2.54, S 2.33, N 2.91, M 1.76, A 2.37, K 2.79, L 2.76
I3: A 4.03, S 4.07, Y 3.29, P 3.42, M 3.23, Q 3.45, E 4.4, T 3.4, F 2.38, D 4.07, N 3.51, C 3.2, R 3.06, G 3.7, L 2.76, V 4.2, W 2.88, K 3.85, H 3.9
S9: F 2.65, N 3.25, I 2.78, V 2.92, M 3.16, E 3.73, C 2.28, L 2.38, P 3.25, Q 2.77, D 3.29, A 2.57, H 3.17, Y 2.48, R 2.79, W 2.19, K 2.87, T 2.9, G 2.75
E4: Q 2.84, V 1.98, W 1.56, R 2.94, T 2.34, L 2.33, N 2.09, I 1.72, C 2.05, G 2.25, M 2.1, D 3.09, F 1.81, Y 1.51, A 2.76, P 3.15, K 2.19, H 2.55, S 2.89
A6: I 2.73, P 2.99, C 2.47, Y 2.19, E 3.74, D 3.7, K 2.98, S 2.54, L 2.2, M 2.63, Q 2.72, N 2.52, W 1.78, G 2.94, F 2.52, R 3.07, H 2.75, V 2.62, T 2.61
I2: V 3.15, W 2.38, Y 2.32
G7: W 2.26, D 3.74, V 2.76, A 3.83, M 2.36, K 2.94, Y 2.45, S 2.9, F 2.78, I 2.84, P 3.04, L 2.67, C 2.56, T 3.08, N 2.77, R 3.54, Q 3.33, H 2.73, E 3.82
E8: M 2.54, W 1.5, A 2.23, V 2.66, T 2.61, P 2.15, S 3.08, K 1.9, N 2.23, Q 2.62, I 2.02, C 2.2, G 2.32, D 2.88, H 2.23, F 2.19, L 2.37, Y 1.99, R 3.15
